According to patent US20240100162A1 (Amgen, published 2024):

B1: TCR2 (TCR, V domains shown)
V domain 1: QKEVEQNSGPLSVPEGAIASLNCTYSDRGSQSFFWYRQYSGKSPELIMSIYSNGDKEDGRFTAQLNKASQYVSLLIRDSQPSDSATYLCAVNIPFSNSGGYQKVTFGTGTKLQVIP
V domain 2: NAGVTQTPKFRVLKTGQSMTLLCAQDMNHEYMYWYRQDPGMGLRLIHYSVGEGTTAKGEVPDGYNVSRLKKQNFLLGLESAAPSQTSVYFCASRHPGQYNQPQHFGDGTRLSILE
B2: TCR3 (TCR, V domains shown)
V domain 1: AQKVTQAQTEISVVEKEDVTLDCVYETRDTTYYLFWYKQPPSGELVFLIRRNSFDEQNEISGRYSWNFQKSTSSFNFTITASQVVDSAVYFCALSVLRMDSSYKLIFGSGTRLLVRP
V domain 2: NAGVTQTPKFRVLKTGQSMTLLCAQDMNHEYMYWYRQDPGMGLRLIHYSVGEGTTAKGEVPDGYNVSRLKKQNFLLGLESAAPSQTSVYFCASSLQGAGQPQHFGDGTRLSILE
B3: TCR1 (TCR, V domains shown)
V domain 1: KQEVTQIPAALSVPEGENLVLNCSFTDSAIYNLQWFRQDPGKGLTSLLLIQSSQREQTSGRLNASLDKSSGRSTLYIAASQPGDSATYLCAAMKTSYDKVIFGPGTSLSVIP
V domain 2: GEEVAQTPKHLVRGEGQKAKLYCAPIKGHSYVFWYQQVLKNEFKFLISFQNENVFDETGMPKERFSAKCLPNSPCSLEIQATKLEDSAVYFCASSQGQGGYGYTFGSGTRLTVVE

Biological target: MAGE-B2 peptide-MHC (…/HLA-A*02:01) on cells (human)
Assay: cell-based or functional assay

Binder	E:T EC50, cytotoxicity against MAGE-B2+ MAGE-A4+ cancer cell lines	E:T EC50, cytotoxicity against MAGE-B2+ MAGE-A4- cancer cell lines	EC90 (peptide concentration), T2/peptide cytotoxicity assay [nM]
B1	0.01 E:T ratio	~0.07 E:T ratio	≤ 10
B2	–	–	≤ 10
B3	–	–	≤ 10
